Laboratory results: patent US20240117073A1, “METHODS OF TREATING NEOPLASTIC ASTROCYTOMA” (Ludwig Institute for Cancer Research Ltd., priority 2009, published 2024)
Values joined by “and” are separate entries in the source; they are usually repeats but may differ in a detail not shown here. Equal values may be shown once. “Also recorded” adds a separate entry of the source. Marks after values point to notes of the source that are not given here.

Assays:
[1] = test system: panel of 12 different malignancies; experiment: immunohistochemistry of tumor panel; parameters: species or system human
Procedure: Immunohistochemical analysis was performed using […] sections of fresh frozen tissue applied to histology slides and fixed for 10 minutes in cold acetone. Bound primary antibody was detected with biotinylated horse anti-mouse antibody followed by an avidin-biotin-complex reaction. Diaminobenzidine tetra hydrochloride (DAB) was used as chromogen. The extent of the immunohistochemical reactivity in tissues was estimated by light microscopy and graded according to the number of immunoreactive cells in 25% increments as follows: • Focal=less than 5% • +=5-25% • ++=25-50% • +++=50-75% • ++++=>75%
The extent of de2-7 EGFR in other tumor types was examined using a panel of 12 different malignancies. […] This staining was strongly dependent on antibody concentration used and was considered nonspecific background reactivity.

sEGFR = molecular target: T1, sEGFR (Homo sapiens, UniProt P00533); experiment: BIAcore, immobilized sEGFR; format: binding
T1 construct: sEGFR is the recombinant extracellular domain (amino acids 1-621) of the wild-type EGFR; host or cells: CHO cells
Procedure: In a second set of BIAcore™ experiments, sEGFR was immobilized on a CM microsensor chip at a surface density of ˜4000RU. Serial dilutions of mAbs were tested for reactivity with sEGFR.

A431 xenografts [2] = experiment: preventative xenograft model; format: in vivo, nude mice
Procedure: Tumor cells (3×10^6) in […] of PBS were inoculated subcutaneously into both flanks of 4-6 week old female nude mice (Animal Research Centre, Western Australia, Australia). […] Treatment was continued for a total of 6 doses, 3 times per week for 2 weeks. In the established model, treatment was started when tumors had reached a mean volume of 65±6.42 mm^3 (U87MG.Δ2-7), 84±9.07 mm^3 (U87MG), 73±7.5 mm^3 (U87MG.wtEGFR) or 201±19.09 mm^3 (A431 tumors). Tumor volume in mm^3 was determined using the formula (length×width^2)/2, where length was the longest axis and width the measurement at right angles to the length (Clark et al. (2000) Therapeutic efficacy of anti-Lewis (y) humanized 3S 193 radioimmunotherapy in a breast cancer model: enhanced activity when combined with Taxol chemotherapy. Clin. Cancer Res. 6, 3621-3628). Data was expressed as mean tumor volume±S.E. for each treatment group. Statistical analysis was performed at given time points using Student's t-test. Animals were euthanized when the xenografts reached an approximate volume of 1.5 cm^3 and the tumors excised for histological examination. This research project was approved by the Animal Ethics Committee of the Austin and Repatriation Medical Centre.
These cells contain an amplified EGFR gene and express approximately 2×10^6 receptors per cell. […]

[3] = test system: Ba/F3 cells expressing the wtEGFR; experiment: EGF-induced proliferation (MTT assay); format: cell-based; conditions: antibody 10 μg/ml
Procedure: Cells growing in log phase were harvested and washed twice with PBS to remove residual IL-3. […] Proliferation was determined using the MTT assay (van de Loosdrecht et al. (1994) J. Immunol. Methods. 174, 311-320).

junction peptide = molecular target: T2, junction peptide (Homo sapiens, UniProt P00533, DELINS30-297G); experiment: dot-blot immune stain; format: binding
T2 construct: purchased Biosource, Camarillo, CA; host or cells: synthetic
Procedure: Dot-blot immune stain experiments were also performed. Serial dilutions of peptide were spotted in 0.5 μl onto a PVDF or nitrocellulose membranes. […] Control antibodies were also negative for peptide binding.

A431 xenografts [4] = experiment: combination therapy with AG1478, preventative model; format: in vivo, mice; conditions: 0.1 mg mAb806; 400 μg AG1478
Procedure: AG1478 (4-(3-Chloroanilino)-6,7-dimethoxyquinazoline) is a potent and selective inhibitor of the EGFR kinase versus HER2-neu and platelet-derived growth factor receptor kinase (Calbiochem Cat. No. 658552). […] The results are illustrated in FIG. 12. […] 400 μg AG1478 was administered at 0, 2, 4, 7, 9, and 11 days post xenograft.

U87MG.wtEGFR cells = experiment: FACS binding to cell lines; format: cell-based, human
Procedure: Briefly, cells were labelled with the relevant antibody (10 μg/ml) followed by fluorescein-conjugated goat anti-mouse IgG (1:100 dilution; Calbiochem San Diego, CA, USA; Becton-Dickinson PharMingen, San Diego, CA, US) as described previously (Nishikawa et al., 1994). FACS data was obtained on a Coulter Epics Elite ESP by observing a minimum of 5,000 events and analyzed using EXPO (version 2) for Windows.
Stained cells were analyzed with a FACS Calibur™ using Cell Quest™ software (Becton-Dickinson PharMingen). […] 1. Mouse IgG2a or IgG2b was used as an isotype control.
Cell lines and antibodies were prepared as described in Example 1. […] Cells (1 3 10 6) were incubated with 5 μg/ml of the appropriate antibody or an isotype-matched negative control in PBS containing 1% HSA for 30 min at 4° C. After three washes with PBS/1% HSA, cells were incubated an additional 30 min at 4° C. with FTTC-coupled goat anti-mouse antibody (1:100 dilution; Calbiochem, San Diego, CA). After three subsequent washes, cells were analyzed on an Epics Elite ESP (Beckman Coulter, Hialeah, FL) by observing a minimum of 20,000 events and analyzed using EXPO (version 2) for Windows.

DU145 cells = experiment: FACS binding to cell lines; format: cell-based, human
Source text: Clearly, mAb806 and mAb175 can recognize only a small proportion of the EGFR on cells in the presence of an autocrine stimulation loop.

[5] = test system: glioblastomas not preselected for their EGFR status; experiment: immunohistochemistry of 46 unselected glioblastomas; parameters: species or system human
Procedure: Immunohistochemical analysis was performed using 5 mm sections of fresh frozen tissue applied to histology slides and fixed for 10 minutes in cold acetone. Bound primary antibody was detected with biotinylated horse anti-mouse antibody followed by an avidin-biotin-complex reaction. Diaminobenzidine tetra hydrochloride (DAB) was used as chromogen. The extent of the immunohistochemical reactivity in tissues was estimated by light microscopy and graded according to the number of immunoreactive cells in 25% increments as follows: • Focal=less than 5% • +=5-25% • ++=25-50% • +++=50-75% • ++++=>75%

[6] = test system: U87MG.DK brain xenografts; experiment: systemic treatment of intracranial xenografts; parameters: species or system nude mice; conditions: mouse, in vivo
Procedure: U87MG.ΔEGFR cells (1×10^5) or 5×10^5 LN-Z308.ΔEGFR, A1207.ΔEGFR, U87MG, U87MG.DK, and U87MG.wtEGFR cells in 5 μl of PBS were implanted into the right corpus stratum of nude mice brains as described previously (Mishima et al. (2000) A peptide derived from the non-receptor binding region of urokinase plasminogen activator inhibits glioblastoma growth and angiogenesis in vivo in combination with cisplatin. Proc. Natl. Acad. Sci. U.S.A. 97, 8484-8489).

B1: mAb806: murine monoclonal antibody recognizing de2-7 EGFR and amplified EGFR; VH SEQ ID NO:2, VL SEQ ID NO:4 (antibody, listed as Mus musculus, V domains shown)
VH: MRVLILLWLFTAFPGVLSDVQLQESGPSLVKPSQSLSLTCTVTGYSITSDFAWNWIRQFPGNKLEWMGYISYSGNTRYNPSLKSRISITRDTSKNQFFLQLNSVTIEDTATYYCVTAGRGFPYWGQGTLVTVSA
VL: MVSTAQFLAFLLLWFPGARCDILMTQSPSSMSVSLGDTVSITCHSSQDINSNIGWLQQRPGKSFKGLIYHGTNLDDEVPSRFSGSGSGADYSLTISSLESEDFADYYCVQYAQFPWTFGGGTKLEIKR
[1]; Colonic carcinoma
  positive tumors/tumors tested: 0/10
[1]; Head + neck cancer (sqcc)
  positive tumors/tumors tested: 7/11
[1]; Leiomyosarcoma
  positive tumors/tumors tested: 0/5
[1]; Liposarcoma
  positive tumors/tumors tested: 0/5*
[1]; Lung (sqcc, adeno, neuroend)
  positive tumors/tumors tested: 6/12
[1]; Malignant melanoma metastases
  positive tumors/tumors tested: 0/10
[1]; Mammary gland
  positive tumors/tumors tested: 1/10
  staining grades of positive tumors: (foc)
[1]; Mfh Malignant fibrous histiocytoma
  positive tumors/tumors tested: 0/5*
[1]; Ovary (serous-papillary)
  positive tumors/tumors tested: 0/5
[1]; Seminoma
  positive tumors/tumors tested: 0/10
[1]; Synovial sarcoma
  positive tumors/tumors tested: 0/5*
[1]; Urinary bladder (tcc, sqcc, adeno)
  positive tumors/tumors tested: 3/10*
[1]; head and neck tumors
  tumors with positive staining: 64%
[1]; lung carcinomas
  tumors with positive staining: 50%
[1]; urinary tumors
  tumors with positive staining: 30%
sEGFR
  reactivity with denaturated sEGFR: strongly reactive
A431 xenografts [2]; 0.1 mg
  effect on xenograft growth: inhibited significantly
A431 xenografts [2]; day 13, 1 mg injection
  mean tumor volume: 260±60.33 mm^3 and 260±60 mm^3
[3]
  effect on EGF-induced proliferation: no effect
Junction peptide
  binding to peptide on membranes: did not bind peptide
A431 xenografts [4]
  tumor volume: significant reduction of tumor volume
U87MG.wtEGFR cells
  FACS staining: stained; also recorded: reacted weakly
DU145 cells
  FACS binding: bind to DU145 cells
[5]; 46 glioblastomas
  positive cases: 58.7%
  positive cases/cases: 27/46
[5]; case with EGFR Amp. N, A2
  immunohistochemical staining: ++++ (++++=>75%)
[5]; cases with EGFR Amp. A, WT
  immunohistochemical staining: ++++ (++++=>75%)
[5]; cases with EGFR Amp. N, mutation nd
  immunohistochemical staining: neg.
[5]; cases with EGFR Amp. nd, mutation nd
  immunohistochemical staining: neg.
[5]; mAb806: in more than 50% of the tumor
  cases with homogeneous immunoreactivity: 22
[6]
  effect on survival: did not extend survival
